Assay results reported in paper PMC12081870 (Communications Biology, 2025).

System: Las17 PPR-N fragment (residues 300-422)
Test: Biolayer Interferometry (BLI), Sla1 SH3 domains to Las17 PPR-N
Assay type: binding, Saccharomyces cerevisiae
Settings: for fold increase in affinity over single SH3 domain: BLI, tandem vs single SH3 domain
From the text: To investigate binding characteristics of the SH3 domains further, Sla1 SH3 protein domains were purified. Three Sla1 SH3 single domains, tandem domains Sla1 SH3#1&2, Sla1 SH3#1&2 W108A (in which the W108A mutation prevents proline motif binding by SH3#2 but not SH3#1) and a fragment with all three SH3 domains were expressed recombinantly and purified. […] This outcome is in line with original research of Rodal and colleagues and with more recent studies of avidity developed by Williamson, which highlighted the importance of tandem binding SH3 domains[13],[27].
Biolayer Interferometry (BLI) assays were performed using an OctetⓇ R2 (Sartorius). Protein samples were placed into the wells of a polystyrene plate (ProxiPlateTM, Perkin Elmer) and binding measured either with Octet NTA Biosensors or Octet GST Biosensors. Screening assays were performed to determine the optimum loading concentration and time for each binding pair to ensure that the probe was not saturated. All experiments were repeated three times, each time with newly prepared protein. Analysis and visualisation were performed using GraphPad Prism 10.0.2.

B1: Sla1 SH3#1-2: SH3#1-2 (aa 5-131), tandem domains; sequence in b253 (protein)
chain: LGIYRAVYAYEPQTPEELAIQEDDLLYLLQKSDIDDWWTVKKRVIGSDSEEPVGLVPSTYIEEAPVLKKVRAIYDYEQVQNADEELTFHENDVFDVFDDKDADWLLVKSTVSNEFGFIPGNYVEPEN
modifications: 15N-labelled (NMR only); left off: GST, end not stated, cleaved
fold increase in affinity over single SH3 domain: ~100 fold | fold increase in affinity over single SH3 domain (listed as tandem Sla1 SH3 domains): > 100 fold | Kd (Biolayer Interferometry, Octet R2, Las17 (aa 300-422), three repeats with newly prepared protein, read-out: binding affinity (Kd)): 87 nM
